Holding throughout (assay): ITC
The target in assay [1] is Petromyzon marinus NCBD (nuclear coactivator binding domain of CREBBP/p300) (Petromyzon marinus (sea lamprey)).
Assay [2] concerns the target Homo sapiens NCBD (nuclear coactivator binding domain) from CREBBP (Homo sapiens (human)) (UniProt Q92793).
For assay [3], the target named is Strongylocentrotus purpuratus NCBD (nuclear coactivator binding domain of CREBBP/p300) (Strongylocentrotus purpuratus (purple sea urchin)).
For assay [4], the target named is T1, Homo sapiens NCBD (nuclear coactivator binding domain) from CREBBP (Homo sapiens (human), UniProt Q92793 2061-2109).
T1 chain: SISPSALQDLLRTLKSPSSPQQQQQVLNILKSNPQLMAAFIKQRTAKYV

In turn, “Petromyzon marinus CID, from the first of the two NCOA proteins (domain or fragment)” came in with a Kd in assay [1] of 200 nM.
In assay [2], “Strongylocentrotus purpuratus CID (CREBBP-binding domain of NCOA) (domain or fragment)” gave a dissociation constant Kd of 4.8 µM. In assay [3], this molecule returned a Kd of 7 to 22 µM and a stoichiometry N of 1.7.
Molecule “Petromyzon marinus CID, from the second of the two NCOA proteins (domain or fragment)” came in with a Kd in assay [1] of 200 nM.
For “Homo sapiens CID (CREBBP-binding domain) from NCOA3 (ACTR) (from UniProt Q9Y6Q9 1045-1086) (domain or fragment)”, the Kd in assay [3] is 13 µM.
For the molecule EGQSDERALLDQLHTLLSNTDATGLEEIDRALGIPELVNQGQ (domain or fragment, Homo sapiens (human)) [Homo sapiens CID (CREBBP-binding domain) from NCOA3 (ACTR)], the affinity in assay [4], expressed as Kd, was 400 nM.

Usually Kd stands for the free concentration of one partner at which half of the binding sites on the other are occupied at equilibrium, for simple one-to-one binding. The low end stands for tighter binding, the high end for weaker binding. In general, stoichiometry N refers to the number of molecules, sites or subunits per partner or assembly.
